Laboratory results as given in article PMC3592575.

Target: α-synuclein (α-syn) (UniProt P37840)
Experiment: self-assembly into fibrils: ThT, monomer filtration, TEM
Conditions: reference: unphosphorylated WT α-syn (semisynthetic and recombinant); sites Y125

## α-synuclein (α-syn) (from UniProt P37840) semisynthetic pY125 α-syn
  binding against the reference: same
